Data from US20160115500A1 (University of California, published 2016).
Residue numbers refer to the chain shown, from its start. Numbers in names are those of the source.

Tests used:
[1] = molecular target: T1, GAL4 activation domain fusion (ACT) to HAB1 (UniProt Q9CAJ0 23-511, limits assumed); experiment: yeast two-hybrid, X-gal; lowest benzothiadiazole concentration giving signal
T1 construct: pACT-HAB1 fusion in yeast reporter strains; also called pACT-HAB1
T1 sequence (looked up): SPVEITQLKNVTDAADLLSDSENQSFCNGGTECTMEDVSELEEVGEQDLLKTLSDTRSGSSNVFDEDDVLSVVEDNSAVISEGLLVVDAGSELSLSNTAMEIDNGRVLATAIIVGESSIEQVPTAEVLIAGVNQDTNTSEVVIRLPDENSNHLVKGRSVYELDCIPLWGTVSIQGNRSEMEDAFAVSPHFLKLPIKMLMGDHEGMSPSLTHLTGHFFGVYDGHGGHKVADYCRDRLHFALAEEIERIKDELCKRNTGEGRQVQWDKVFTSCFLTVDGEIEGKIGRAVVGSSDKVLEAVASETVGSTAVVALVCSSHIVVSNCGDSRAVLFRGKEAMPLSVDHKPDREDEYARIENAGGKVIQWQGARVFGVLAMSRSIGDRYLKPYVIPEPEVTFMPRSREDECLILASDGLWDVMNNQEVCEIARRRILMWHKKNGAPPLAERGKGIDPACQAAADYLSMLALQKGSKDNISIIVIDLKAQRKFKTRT

[2] = molecular target: T1, GAL4 activation domain fusion (ACT) to …; experiment: yeast two-hybrid, X-gal; lowest fludioxonil concentration giving signal
[3] = molecular target: T1, GAL4 activation domain fusion (ACT) to …; experiment: yeast two-hybrid, X-gal; lowest dichlobenil concentration giving signal
[4] = molecular target: T1, GAL4 activation domain fusion (ACT) to …; experiment: yeast two-hybrid, X-gal; lowest mandipropamid concentration giving signal

B1: PYR1^K59R,A89C (receptor, not shown: small tags and cut ends)
chain: MPSELTPEERSELKNSIAEFHTYQLDPGSCSSLHAQRIHAPPELVWSIVRRFDKPQTYRHFIKSCSVEQNFEMRVGCTRDVIVISGLPCNTSTERLDILDDERRVTGFSIIGGEHRLTNYKSVTTVHRFEKENRIWTVVLESYVVDMPEGNSEDDTRMFADTVVKLNLQKLATVAEAMARNSGDGSGSQVT
notes: pBD-PYR1 fusion in yeast
Threshold [1]: 100 µM

B2: PYR1^K59R,A89C,A160G (receptor, not shown: small tags and cut ends)
chain: B1 chain with A160G
notes: pBD-PYR1 fusion in yeast
Threshold [1]: 5 µM

B3: PYR1^K59R,A89C,E141Y (receptor, not shown: small tags and cut ends)
chain: B1 chain with E141Y
notes: pBD-PYR1 fusion in yeast
Threshold [1]: 0.2 µM

B4: PYR1^K59R,A89C,L117C (receptor)
chain: B1 chain with L117C
notes: pBD-PYR1 fusion in yeast
Threshold [1]: 25 µM

B5: PYR1^K59R,A89C,V164K (receptor, not shown: small tags and cut ends)
chain: B1 chain with V164K
notes: pBD-PYR1 fusion in yeast
Threshold [1]: 0.2 µM

B6: PYR1^K59R,A160C (receptor, not shown: small tags and cut ends)
chain: B1 chain with C89A, A160C
notes: pBD-PYR1 fusion in yeast
Threshold [2]: 100 µM
Threshold [3]: 100 µM

B7: PYR1^K59R,A160G (receptor, not shown: small tags and cut ends)
chain: B1 chain with C89A, A160G
notes: pBD-PYR1 fusion in yeast
Threshold [1]: 100 µM

B8: PYR1^K59R,A160G,L117C (receptor)
chain: B1 chain with C89A, L117C, A160G
notes: pBD-PYR1 fusion in yeast
Threshold [1]: 25 µM

B9: PYR1^K59R,A160G,V164K (receptor)
chain: B1 chain with C89A, A160G, V164K
notes: pBD-PYR1 fusion in yeast
Threshold [1]: 5 µM

B10: PYR1^K59R,E94A (receptor, not shown: small tags and cut ends)
chain: B1 chain with C89A, E94A
notes: pBD-PYR1 fusion in yeast
Threshold [2]: 1 µM

B11: PYR1^K59R,E94A,N167C (receptor, not shown: small tags and cut ends)
chain: B1 chain with C89A, E94A, N167C
notes: pBD-PYR1 fusion in yeast
Threshold [2]: 10 µM

B12: PYR1^K59R,E94A,Y120A (receptor, not shown: small tags and cut ends)
chain: B1 chain with C89A, E94A, Y120A
notes: pBD-PYR1 fusion in yeast
Threshold [2]: 10 µM

B13: PYR1^K59R,E94D (receptor, not shown: small tags and cut ends)
chain: B1 chain with C89A, E94D
notes: pBD-PYR1 fusion in yeast
Threshold [2]: 100 µM
Threshold [3]: 100 µM

B14: PYR1^K59R,E94S (receptor, not shown: small tags and cut ends)
chain: B1 chain with C89A, E94S
notes: pBD-PYR1 fusion in yeast
Threshold [2]: 100 µM

B15: PYR1^K59R,E141K (receptor, not shown: small tags and cut ends)
chain: B1 chain with C89A, E141K
notes: pBD-PYR1 fusion in yeast
Threshold [1]: 100 µM

B16: PYR1^K59R,E141Y,A160G (receptor)
chain: B1 chain with C89A, E141Y, A160G
notes: pBD-PYR1 fusion in yeast
Threshold [1]: 5 µM

B17: PYR1^K59R,F108E (receptor, not shown: small tags and cut ends)
chain: B1 chain with C89A, F108E
notes: pBD-PYR1 fusion in yeast
Threshold [4]: 100 µM
Threshold [3]: 100 µM

B18: PYR1^K59R,F108L (receptor)
chain: B1 chain with C89A, F108L
notes: pBD-PYR1 fusion in yeast
Threshold [2]: 100 µM
Threshold [4]: 100 µM

B19: PYR1^K59R,F108V (receptor, not shown: small tags and cut ends)
chain: B1 chain with C89A, F108V
notes: pBD-PYR1 fusion in yeast
Threshold [4]: 100 µM

B20: PYR1^K59R,L87P (receptor, not shown: small tags and cut ends)
chain: B1 chain with L87P, C89A
notes: pBD-PYR1 fusion in yeast
Threshold [2]: 100 µM
Threshold [3]: 100 µM

B21: PYR1^K59R,L117C (receptor, not shown: small tags and cut ends)
chain: B1 chain with C89A, L117C
notes: pBD-PYR1 fusion in yeast
Threshold [1]: 100 µM

B22: PYR1^K59R,L117C,V164K (receptor)
chain: B1 chain with C89A, L117C, V164K
notes: pBD-PYR1 fusion in yeast
Threshold [1]: 100 µM

B23: PYR1^K59R,N167C (receptor, not shown: small tags and cut ends)
chain: B1 chain with C89A, N167C
notes: pBD-PYR1 fusion in yeast
Threshold [2]: 100 µM
Threshold [3]: 100 µM

B24: PYR1^K59R,N167H (receptor, not shown: small tags and cut ends)
chain: B1 chain with C89A, N167H
notes: pBD-PYR1 fusion in yeast
Threshold [2]: 100 µM

B25: PYR1^K59R,N167V (receptor, not shown: small tags and cut ends)
chain: B1 chain with C89A, N167V
notes: pBD-PYR1 fusion in yeast
Threshold [2]: 100 µM

B26: PYR1^K59R,S92F (receptor, not shown: small tags and cut ends)
chain: B1 chain with C89A, S92F
notes: pBD-PYR1 fusion in yeast
Threshold [2]: 100 µM

B27: PYR1^K59R,S122G (receptor, not shown: small tags and cut ends)
chain: B1 chain with C89A, S122G
notes: pBD-PYR1 fusion in yeast
Threshold [4]: 100 µM

B28: PYR1^K59R,T162K (receptor, not shown: small tags and cut ends)
chain: B1 chain with C89A, T162K
notes: pBD-PYR1 fusion in yeast
Threshold [1]: 100 µM
Threshold [3]: 100 µM

B29: PYR1^K59R,T162Y (receptor, not shown: small tags and cut ends)
chain: B1 chain with C89A, T162Y
notes: pBD-PYR1 fusion in yeast
Threshold [1]: 100 µM
Threshold [3]: 100 µM

B30: PYR1^K59R,V81I,F108A,S122G,A160V (receptor)
chain: B1 chain with V81I, C89A, F108A, S122G, A160V
notes: pBD-PYR1 fusion in yeast
Threshold [4]: 0.05 µM

B31: PYR1^K59R,V81Y (receptor, not shown: small tags and cut ends)
chain: B1 chain with V81Y, C89A
notes: pBD-PYR1 fusion in yeast
Threshold [2]: 100 µM

B32: PYR1^K59R,Y120A (receptor, not shown: small tags and cut ends)
chain: B1 chain with C89A, Y120A
notes: pBD-PYR1 fusion in yeast
Threshold [2]: 100 µM

B33: PYR1^K59R,Y120A,E141Y (receptor, not shown: small tags and cut ends)
chain: B1 chain with C89A, Y120A, E141Y
notes: pBD-PYR1 fusion in yeast
Threshold [2]: 10 µM

B34: PYR1^K59R,Y120A,N167C (receptor, not shown: small tags and cut ends)
chain: B1 chain with C89A, Y120A, N167C
notes: pBD-PYR1 fusion in yeast
Threshold [2]: 10 µM

B35: PYR1^K59R,Y120F (receptor, not shown: small tags and cut ends)
chain: B1 chain with C89A, Y120F
notes: pBD-PYR1 fusion in yeast
Threshold [2]: 100 µM

B36: PYR1^K59R,Y120G (receptor, not shown: small tags and cut ends)
chain: B1 chain with C89A, Y120G
notes: pBD-PYR1 fusion in yeast
Threshold [2]: 100 µM

B37: PYR1^K59R,Y120M (receptor, not shown: small tags and cut ends)
chain: B1 chain with C89A, Y120M
notes: pBD-PYR1 fusion in yeast
Threshold [2]: 100 µM

B38: PYR1^Y58H,K59R,F108A,S122G (receptor)
chain: B1 chain with Y58H, C89A, F108A, S122G
notes: pBD-PYR1 fusion in yeast
Threshold [4]: 0.25 µM

B39: PYR1^Y58H,K59R,V81I,F108A,S122G (receptor)
chain: B1 chain with Y58H, V81I, C89A, F108A, S122G
notes: pBD-PYR1 fusion in yeast
Threshold [4]: 0.05 µM

B40: PYR1^Y58H,K59R,V81I,F108A,S122G,F159L (receptor, not shown: small tags and cut ends)
chain: B1 chain with Y58H, V81I, C89A, F108A, S122G, F159L
notes: pBD-PYR1 fusion in yeast; also called PYR1^MANDI; pBD-PYR1^MANDI
Threshold [4]: 0.002 µM

B41: PYR1^Y58H,K59R,V81I,F108A,S122G,V164I (receptor, not shown: small tags and cut ends)
chain: B1 chain with Y58H, V81I, C89A, F108A, S122G, V164I
notes: pBD-PYR1 fusion in yeast
Threshold [4]: 0.01 µM

B42: PYR1^Y58H,K59R,V83L,F108A,S122G (receptor, not shown: small tags and cut ends)
chain: B1 chain with Y58H, V83L, C89A, F108A, S122G
notes: pBD-PYR1 fusion in yeast
Threshold [4]: 0.01 µM
